According to US20030148957A1 (PROCTER AND GAMBLE, published 2003):
Ends that are not written are not given here.

Target: T1, CRF2R
T1 sequence (Q13324 whole entry, species assumed, looked up): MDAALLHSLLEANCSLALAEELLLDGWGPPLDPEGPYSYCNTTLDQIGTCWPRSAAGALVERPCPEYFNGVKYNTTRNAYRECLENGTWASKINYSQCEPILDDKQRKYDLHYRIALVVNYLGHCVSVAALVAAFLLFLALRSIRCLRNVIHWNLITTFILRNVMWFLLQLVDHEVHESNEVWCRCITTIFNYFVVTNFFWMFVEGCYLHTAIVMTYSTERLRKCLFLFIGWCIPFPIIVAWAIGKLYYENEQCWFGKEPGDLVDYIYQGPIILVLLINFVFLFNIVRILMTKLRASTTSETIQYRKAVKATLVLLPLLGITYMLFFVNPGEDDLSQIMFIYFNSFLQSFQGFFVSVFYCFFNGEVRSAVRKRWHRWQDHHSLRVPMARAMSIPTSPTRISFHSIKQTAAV
Assay: cell-based or functional assay

## IVLSLDVPIGLLQELLEMARAEQLAQQAHSNRKLMEII-NH2 [SEQ ID NO 1]
  CRF2R (Emax %): 100%
